Where a chain is given by its changes, count along the chain named. Numbers in names are those of the source.
T1: HA head domain of H1 A/Solomon Islands/3/2006 (Influenza A virus A/Solomon …, strain)
T1 chain: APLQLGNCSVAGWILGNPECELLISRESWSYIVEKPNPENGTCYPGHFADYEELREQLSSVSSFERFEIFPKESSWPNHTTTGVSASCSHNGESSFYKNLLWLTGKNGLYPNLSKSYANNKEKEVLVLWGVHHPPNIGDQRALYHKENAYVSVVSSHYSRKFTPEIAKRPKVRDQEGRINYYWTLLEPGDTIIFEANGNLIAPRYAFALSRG

B1: rFluA-20 Fab (Fab, V domains shown)
VH: QVQLEESGPGLVKPSETLSLTCSVSGVSVTSDIYYWTWIRQPPGKGLEWIGYIFYNGDTNYNPSLKSRVTMSIDTSKNEFSLRLTSVTAADTAVYFCARGTEDLGYCSSGSCPNHWGQGTLVTVSS
VL: DIVMTQSPSSLSASIGDRVTITCRPSQNIRSFLNWFQHKPGKAPKLLIYAASNLQSGVPSRFSGSGSGTEFTLTIRSLQPEDFATYYCQQSYNTPPTFGQGTKVEIK
B2: rFluA-20 IgG Y49A (L) (antibody, V domains shown)
VH: B1 VH
VL: B1 VL with Y49A
B3: rFluA-20 IgG Q55A (L) (antibody, V domains shown)
VH: B1 VH
VL: B1 VL with Q55A
B4: rFluA-20 IgG D98A (H) (antibody, V domains shown)
VH: B1 VH with D103A
VL: B1 VL

How the values were obtained:
[1] = molecular target: T1, HA head domain of H1 A/Solomon …; assay: BLI
[2] = molecular target: H1 HA of A/Texas/36/1991 (Influenza A virus A/Texas/36/1991 (H1N1), UniProt Q6WG02, strain); assay: ELISA

| Binder | binding result [1] | binding result [2] |
| --- | --- | --- |
| B1 | binds |  |
| B2 |  | no binding (tested: 10 μg/mL) |
| B3 |  | binds |
| B4 |  | no binding (tested: 10 μg/mL) |

Reference: publication PMC6629437 (Cell, 2019)
